Here are results for twelve molecules from patent publication US6537972B1, “Compositions and methods for inhibiting human immunodeficiency virus infection by down-regulating human cellular genes” (Subsidiary No. 3., Inc., priority 1997, dated 2003).

To fix the notation:
B1: CF-273: GSE; sense, gene encoding human eukaryotic initiation factor 3 (nucleic acid)
sense: GCTCGTCAGTGTCCACCCCTCCTCGCAACTCCAGGCGCTCCTTTTTCTGCTCCATATAGAGCTCCTGGGCCATTTTCCGGTACTTCCGGAAATCTTCCATCATGGTGCGCCTTC
B2: CF-004: GSE; sense, gene encoding human 2-oxoglutarate dehydrogenase (nucleic acid)
sense: GCGCAAAGCACGCGACATGGTGGGGCAGGTGGCCATCACAAGGATTGAGCAGCTGTCGCCATTCCCCTTTGACCTCCTGCTGAAGGAGGTGCAGAAGTACCCCAA
B3: CF-025: GSE; antisense, gene for the ND2 subunit of human NADH dehydrogenase (nucleic acid)
antisense: GAAGAAGCAGGCCGGATGTCAGAGGGGTGCCTTGGGTAACCTCTGGGACTCAGAAGTGAAAGGGGGCTATTCCTAGTTTTATTGCTATAGCCATTATGATTATTAATGATGAGTAT
B4: CF-266: GSE; antisense, gene encoding human eukaryotic initiation factor 4B (nucleic acid)
antisense: GCCGTTCTTCTACTTCTCTTTCTCAAGCAGCAGTGTCAACAGGCTTTGCCCCTCCAAAGATAGAAGCAGCTCGAGTGGACTGGGAGGTACTAGCAGA
B5: CF-204: GSE; antisense, gene encoding human calnexin (nucleic acid)
antisense: GGTTGTCAATCACAGGTCGCCACCAGACACCACATCCAGGAGCTGACTCACATCTAGGGTTGGCAATCTGAGGAGCCTCCCATTCTCCATCCATGTCTTCATCCCAA
B6: CF-128: GSE; sense, gene for the ND4 subunit of human NADH dehydrogenase (nucleic acid)
sense: TCCTAGTCCTCACAATCATGGCAAGCCAGCGCCACTTATCCAGTGAACCACTATCACGAAAAAAACTCTACCTCTCTATACTAATCTCCCTACAAATCTCCTTAATTATAATATTCACAACCACAGA
B7: CF-313: GSE; sense, gene encoding a human protein tyrosine phosphatase (nucleic acid)
sense: CATTTTGTTACATAAGGATGACTTTTTTATACAATGGAATAAATTATGGCATTTCTATTGAAATTTCAACGCTTTTGTTTCTTTGGCAACCACAC
B8: CF-286: GSE; sense, gene encoding human elongation factor 1 alpha (nucleic acid)
sense: CAGTTGGGGTGGGTGTCATCAAAGCAGTGGACAAGAAGGCTGCTGGAGCTGGCAAGGTCACCAAGTCTGCCCAGAAAGCTCAGAAGGCTAAATGAATATTATCCCTAATACCTGCCACCCCACTCTTAATCAGTGGTGGAAGAAC
B9: CF-317: GSE; antisense, gene encoding phosphatidyl-inositol 3 kinase (nucleic acid)
antisense: CCAAGCTTCCTATCTTAAGCTGGGCGTTGATATCCAGGTCACAACTATAGATGTAGTGAAACTTCTCTGCTTCCCCCATCGCACCGTCTGCAAAGGTACCACC
B10: CF-302: GSE; antisense, gene encoding CD44 (nucleic acid)
antisense: GATCCCTGGGCGCGGGGCAGGGGCCGGCGGAGGACGGGACGAGGATGGCGGACCGAACCTGGCAGAGGCTGGG
B11: CF-311: GSE; antisense, gene encoding a human protein tyrosine phosphatase (nucleic acid)
antisense: GGGGGCTCTGTTTGGTGGTCTCTCTAGCTGCACTGGTCTATCAAGCTGTTGGCTGGTCTCTCTCTCTGGCTGGGGATC
B12: CF-210: GSE; sense, gene encoding human herpesvirus-associated ubiquitin-specific protease (HAUSP) (nucleic acid)
sense: GCATTACAAAGAGTGTTCTATGAATTACAGCATAGTGATAAACCTGTAGGAACAAAAAAGTTAACAAAGTCATTTGGGTGGGAAACTTTAGATAGCTTCATGCAACATGATGTT

In the series the test system is HIV-1IIIB. Nature of the series: GSE selection by prevention of productive infection of CEM-ss cells by HIV-1IIIB. In kind it is cell-based. The settings on record: GSE from HeLa RFE library, selected in CEM-ss cells. As to the method:
Additionally, a normalized RFE library made from HeLa cells was transferred into CEM-ss cells and the neo resistant population was infected with TCID50 of 3000/10^6 cells of HIV-1IIIB. This RFE library was represented by 50×10^6 independent recombinant clones. Four and seven days after infection, a purified anti-CD4 monoclonal antibody, L77 (Becton Dickinson), was added at 5 μg/ml to prevent syncytia formation. Syncytia formation is thought to be prevented by blocking the interaction between gp120 expressed on the surface of an infected cell and CD4 on the surface of an uninfected cell. […] At 10-12 days after infection, CD4^+, p24^− cell population representing uninfected cells were sorted. Genomic DNA from the CD4^+, p24^− cells was purified and used for PCR amplification of inserts with the vector-derived primers. The amplified mixture was digested with EcoRI and BamHI and cloned back into the retroviral vector. The selection was repeated for additional rounds.
In order to determine p24 expression in HIV-infected cells, the cells were first washed twice with Assay Buffer. About 10^6 cells were suspended in 100 μl Assay Buffer, mixed with 2 ml of Ortho PermeaFix Solution (Ortho Diagnostics), and incubated for 40 min. at room temperature. After centrifugation at 1200 rpm for 4 min. at 4° C., the cells were resuspended in 2 ml Wash Buffer (500 ml PBS, 25 ml fetal bovine serum, 1.5% bovine serum albumin and 0.0055% EDTA) for 10 min. at room temperature. After centrifugation, the cells were resuspended in 50 μl Wash Buffer and mixed with 1:500 dilution of an IgG22, antibody for 20 min. at 4° C., followed by incubation with 5-10 μl of anti-p24 antibody (KC57-FITC, Coulter) for 30 min. at 4° C. The cells were then washed twice with Wash Buffer and analyzed by flow cytometry.
Regarding B1, the “suppression of HIV infection by the GSE” value is recorded as “suppresses HIV infection”.

For B2, the “suppression of HIV infection by the GSE” value was “suppresses HIV infection”.

Consider B3, for which the “suppression of HIV infection by the GSE” value was “suppresses HIV infection”.

For the molecule B4, the “suppression of HIV infection by the GSE” value is recorded as “suppresses HIV infection”.

As for B5, the “suppression of HIV infection by the GSE” value is listed as “suppresses HIV infection”.

In the case of B6, the “suppression of HIV infection by the GSE” value is “suppresses HIV infection”.

For the molecule B7, the “suppression of HIV infection by the GSE” value is on record as “suppresses HIV infection”.

With B8, the “suppression of HIV infection by the GSE” value is listed as “suppresses HIV infection”.

B9: the “suppression of HIV infection by the GSE” value is “suppresses HIV infection”.

On to B10, for which the “suppression of HIV infection by the GSE” value is reported as “suppresses HIV infection”.

For the molecule B11, the “suppression of HIV infection by the GSE” value is “suppresses HIV infection”.

Turning to B12, the “suppression of HIV infection by the GSE” value was “suppresses HIV infection”.
